B1: SKIV2L2 (protein, UniProt P42285 2-1042, looked up)
Exosome RNA helicase MTR4: ADAFGDELFSVFEGDSTTAAGTKKDKEKDKGKWKGPPGSADKAGKRFDGKLQSESTNNGKNKRDVDFEGTDEPIFGKKPRIEESITEDLSLADLMPRVKVQSVETVEGCTHEVALPAEEDYLPLKPRVGKAAKEYPFILDAFQREAIQCVDNNQSVLVSAHTSAGKTVCAEYAIALALREKQRVIFTSPIKALSNQKYREMYEEFQDVGLMTGDVTINPTASCLVMTTEILRSMLYRGSEVMREVAWVIFDEIHYMRDSERGVVWEETIILLPDNVHYVFLSATIPNARQFAEWICHLHKQPCHVIYTDYRPTPLQHYIFPAGGDGLHLVVDENGDFREDNFNTAMQVLRDAGDLAKGDQKGRKGGTKGPSNVFKIVKMIMERNFQPVIIFSFSKKDCEAYALQMTKLDFNTDEEKKMVEEVFSNAIDCLSDEDKKLPQVEHVLPLLKRGIGIHHGGLLPILKETIEILFSEGLIKALFATETFAMGINMPARTVLFTNARKFDGKDFRWISSGEYIQMSGRAGRRGMDDRGIVILMVDEKMSPTIGKQLLKGSADPLNSAFHLTYNMVLNLLRVEEINPEYMLEKSFYQFQHYRAIPGVVEKVKNSEEQYNKIVIPNEESVVIYYKIRQQLAKLGKEIEEYIHKPKYCLPFLQPGRLVKVKNEGDDFGWGVVVNFSKKSNVKPNSGELDPLYVVEVLLRCSKESLKNSATEAAKPAKPDEKGEMQVVPVLVHLLSAISSVRLYIPKDLRPVDNRQSVLKSIQEVQKRFPDGIPLLDPIDDMGIQDQGLKKVIQKVEAFEHRMYSHPLHNDPNLETVYTLCEKKAQIAIDIKSAKRELKKARTVLQMDELKCRKRVLRRLGFATSSDVIEMKGRVACEISSADELLLTEMMFNGLFNDLSAEQATALLSCFVFQENSSEMPKLTEQLAGPLRQMQECAKRIAKVSAEAKLEIDEETYLSSFKPHLMDVVYTWATGATFAHICKMTDVFEGSIIRCMRRLEELLRQMCQAAKAIGNTELENKFAEGITKIKRDIVFAASLYL
B2: SRSF10 (protein, UniProt O75494 1-262, looked up)
Serine/arginine-rich splicing …: MSRYLRPPNTSLFVRNVADDTRSEDLRREFGRYGPIVDVYVPLDFYTRRPRGFAYVQFEDVRDAEDALHNLDRKWICGRQIEIQFAQGDRKTPNQMKAKEGRNVYSSSRYDDYDRYRRSRSRSYERRRSRSRSFDYNYRRSYSPRNSRPTGRPRRSRSHSDNDRFKHRNRSFSRSKSNSRSRSKSQPKKEMKAKSRSRSASHTKTRGTSKTDSKTHYKSGSRYEKESRKKEPPRSKSQSRSQSRSRSKSRSRSWTSPKSSGH
B3: TSC1 (protein, UniProt Q92574 1-1164, looked up)
Hamartin: MAQQANVGELLAMLDSPMLGVRDDVTAVFKENLNSDRGPMLVNTLVDYYLETSSQPALHILTTLQEPHDKHLLDRINEYVGKAATRLSILSLLGHVIRLQPSWKHKLSQAPLLPSLLKCLKMDTDVVVLTTGVLVLITMLPMIPQSGKQHLLDFFDIFGRLSSWCLKKPGHVAEVYLVHLHASVYALFHRLYGMYPCNFVSFLRSHYSMKENLETFEEVVKPMMEHVRIHPELVTGSKDHELDPRRWKRLETHDVVIECAKISLDPTEASYEDGYSVSHQISARFPHRSADVTTSPYADTQNSYGCATSTPYSTSRLMLLNMPGQLPQTLSSPSTRLITEPPQATLWSPSMVCGMTTPPTSPGNVPPDLSHPYSKVFGTTAGGKGTPLGTPATSPPPAPLCHSDDYVHISLPQATVTPPRKEERMDSARPCLHRQHHLLNDRGSEEPPGSKGSVTLSDLPGFLGDLASEEDSIEKDKEEAAISRELSEITTAEAEPVVPRGGFDSPFYRDSLPGSQRKTHSAASSSQGASVNPEPLHSSLDKLGPDTPKQAFTPIDLPCGSADESPAGDRECQTSLETSIFTPSPCKIPPPTRVGFGSGQPPPYDHLFEVALPKTAHHFVIRKTEELLKKAKGNTEEDGVPSTSPMEVLDRLIQQGADAHSKELNKLPLPSKSVDWTHFGGSPPSDEIRTLRDQLLLLHNQLLYERFKRQQHALRNRRLLRKVIKAAALEEHNAAMKDQLKLQEKDIQMWKVSLQKEQARYNQLQEQRDTMVTKLHSQIRQLQHDREEFYNQSQELQTKLEDCRNMIAELRIELKKANNKVCHTELLLSQVSQKLSNSESVQQQMEFLNRQLLVLGEVNELYLEQLQNKHSDTTKEVEMMKAAYRKELEKNRSHVLQQTQRLDTSQKRILELESHLAKKDHLLLEQKKYLEDVKLQARGQLQAAESRYEAQKRITQVFELEILDLYGRLEKDGLLKKLEEEKAEAAEAAEERLDCCNDGCSDSMVGHNEEASGHNGETKTPRPSSARGSSGSRGGGGSSSSSSELSTPEKPPHQRAGPFSSRWETTMGEASASIPTTVGSLPSSKSFLGMKARELFRNKSESQCDEDGMTSSLSESLKTELGKDLGVEAKIPLNLDGPHPSPPTPDSVGQLHIMDYNETHHEHS
B4: FAM53B (protein, UniProt Q14153 1-422, looked up)
Protein FAM53B: MVMVLSESLSTRGADSIACGTFSRELHTPKKMSQGPTLFSCGIMENDRWRDLDRKCPLQIDQPSTSIWECLPEKDSSLWHREAVTACAVTSLIKDLSISDHNGNPSAPPSKRQCRSLSFSDEMSSCRTSWRPLGSKVWTPVEKRRCYSGGSVQRYSNGFSTMQRSSSFSLPSRANVLSSPCDQAGLHHRFGGQPCQGVPGSAPCGQAGDTWSPDLHPVGGGRLDLQRSLSCSHEQFSFVEYCPPSANSTPASTPELARRSSGLSRSRSQPCVLNDKKVGVKRRRPEEVQEQRPSLDLAKMAQNCQTFSSLSCLSAGTEDCGPQSPFARHVSNTRAWTALLSASGPGGRTPAGTPVPEPLPPSFDDHLACQEDLSCEESDSCALDEDCGRRAEPAAAWRDRGAPGNSLCSLDGELDIEQIEKN
B5: ZCCHC8 (protein, UniProt Q6NZY4 2-707, looked up)
Zinc finger CCHC …: AAEVYFGDLELFEPFDHPEESIPKPVHTRFKDDDGDEEDENGVGDAELRERLRQCEETIEQLRAENQELKRKLNILTRPSGILVNDTKLDGPILQILFMNNAISKQYHQEIEEFVSNLVKRFEEQQKNDVEKTSFNLLPQPSSIVLEEDHKVEESCAIKNNKEAFSVVGSVLYFTNFCLDKLGQPLLNENPQLSEGWEIPKYHQVFSHIVSLEGQEIQVKAKRPKPHCFNCGSEEHQMKDCPMPRNAARISEKRKEYMDACGEANNQNFQQRYHAEEVEERFGRFKPGVISEELQDALGVTDKSLPPFIYRMRQLGYPPGWLKEAELENSGLALYDGKDGTDGETEVGEIQQNKSVTYDLSKLVNYPGFNISTPRGIPDEWRIFGSIPMQACQQKDVFANYLTSNFQAPGVKSGNKRSSSHSSPGSPKKQKNESNSAGSPADMELDSDMEVPHGSQSSESFQFQPPLPPDTPPLPRGTPPPVFTPPLPKGTPPLTPSDSPQTRTASGAVDEDALTLEELEEQQRRIWAALEQAESVNSDSDVPVDTPLTGNSVASSPCPNELDLPVPEGKTSEKQTLDEPEVPEIFTKKSEAGHASSPDSEVTSLCQKEKAELAPVNTEGALLDNGSVVPNCDISNGGSQKLFPADTSPSTATKIHSPIPDMSKFATGITPFEFENMAESTGMYLRIRSLLKNSPRNQQKNKKASE
B6: PDLIM5 (protein, UniProt Q96HC4 2-596, looked up)
PDZ and LIM domain protein 5: SNYSVSLVGPAPWGFRLQGGKDFNMPLTISSLKDGGKAAQANVRIGDVVLSIDGINAQGMTHLEAQNKIKGCTGSLNMTLQRASAAPKPEPVPVQKGEPKEVVKPVPITSPAVSKVTSTNNMAYNKAPRPFGSVSSPKVTSIPSPSSAFTPAHATTSSHASPSPVAAVTPPLFAASGLHANANLSADQSPSALSAGKTAVNVPRQPTVTSVCSETSQELAEGQRRGSQGDSKQQNGPPRKHIVERYTEFYHVPTHSDASKKRLIEDTEDWRPRTGTTQSRSFRILAQITGTEHLKESEADNTKKANNSQEPSPQLASSVASTRSMPESLDSPTSGRPGVTSLTAAAAFKPVGSTGVIKSPSWQRPNQGVPSTGRISNSATYSGSVAPANSALGQTQPSDQDTLVQRAEHIPAGKRTPMCAHCNQVIRGPFLVALGKSWHPEEFNCAHCKNTMAYIGFVEEKGALYCELCYEKFFAPECGRCQRKILGEVISALKQTWHVSCFVCVACGKPIRNNVFHLEDGEPYCETDYYALFGTICHGCEFPIEAGDMFLEALGYTWHDTCFVCSVCCESLEGQTFFSKKDKPLCKKHAHSVNF
B7: SHCBP1 (protein, UniProt Q8NEM2 2-672, looked up)
SHC SH2 domain-binding …: ADGSLTGGGLEAAAMAPERMGWAVEQELASLEKGLFQDEDSCSDCSYRDKPGSSLQSFMPEGKTFFPEIFQTNQLLFYERFRAYQDYILADCKASEVQEFTAEFLEKVLEPSGWRAVWHTNVFKVLVEITDVDFAALKAVVRLAEPYLCDSQVSTFTMECMKELLDLKEHRLPLQELWVVFDDSGVFDQTALAIEHVRFFYQNIWRSWDEEEEDEYDYFVRCVEPRLRLHYDILEDRVPSGLIVDYHNLLSQCEESYRKFLNLRSSLSNCNSDSEQENISMVEGLKLYSEMEQLKQKLKLIENPLLRYVFGYQKNSNIQAKGVRSSGQKITHVVSSTMMAGLLRSLLTDRLCQEPGEEEREIQFHSDPLSAINACFEGDTVIVCPGHYVVHGTFSIADSIELEGYGLPDDIVIEKRGKGDTFVDCTGADIKISGIKFVQHDAVEGILIVHRGKTTLENCVLQCETTGVTVRTSAEFLMKNSDLYGAKGAGIEIYPGSQCTLSDNGIHHCKEGILIKDFLDEHYDIPKISMVNNIIHNNEGYGVVLVKPTIFSDLQENAEDGTEENKALKIQTSGEPDVAERVDLEELIECATGKMELCARTDPSEQVEGNCEIVNELIAASTQKGQIKKKRLSELGITQADDNLMSQEMFVGIVGNQFKWNGKGSFGTFLF
B8: ARHGEF7 (protein, UniProt Q14155 1-803, looked up)
Rho guanine nucleotide …: MNSAEQTVTWLITLGVLESPKKTISDPEGFLQASLKDGVVLCRLLERLLPGTIEKVYPEPRSESECLSNIREFLRGCGASLRLELLFPPSQPPQHLVTTILLSASTFDANDLYQGQNFNKVLSSLVTLNKVTADIGLGSDSVCARPSSHRIKSFDSLGSQSLHTRTSKLFQGQYRSLDMTDNSNNQLVVRAKFNFQQTNEDELSFSKGDVIHVTRVEEGGWWEGTLNGRTGWFPSNYVREVKASEKPVSPKSGTLKSPPKGFDTTAINKSYYNVVLQNILETENEYSKELQTVLSTYLRPLQTSEKLSSANISYLMGNLEEICSFQQMLVQSLEECTKLPEAQQRVGGCFLNLMPQMKTLYLTYCANHPSAVNVLTEHSEELGEFMETKGASSPGILVLTTGLSKPFMRLDKYPTLLKELERHMEDYHTDRQDIQKSMAAFKNLSAQCQEVRKRKELELQILTEAIRNWEGDDIKTLGNVTYMSQVLIQCAGSEEKNERYLLLFPNVLLMLSASPRMSGFIYQGKLPTTGMTITKLEDSENHRNAFEISGSMIERILVSCNNQQDLQEWVEHLQKQTKVTSVGNPTIKPHSVPSHTLPSHPVTPSSKHADSKPAPLTPAYHTLPHPSHHGTPHTTINWGPLEPPKTPKPWSLSCLRPAPPLRPSAALCYKEDLSKSPKTMKKLLPKRKPERKPSDEEFASRKSTAALEEDAQILKVIEAYCTSAKTRQTLNSTWQGTDLMHNHVLADDDQPSLDSLGRRSSLSRLEPSDLSEDSDYDSIWTAHSYRMGSTSRKSCCSYISHQN

Test system: GFP-14-3-3β and its binding proteins
Assay: GFP-14-3-3β co-IP with LC-MS/MS label-free quantification, untreated versus PP1c-treated
Design: species or system human
Details: pairwise comparison PP1 vs untreated, student's t-test; 3 replicates each; LC-MS/MS label-free quantification

Molecule	Difference (log2), PP1 vs untreated [log2]
B1	-3.184
B2	-2.973
B3	-3.2926
B4	-3.06
B5	-3.239
B6	-3.258
B7	-3.298
B8	-3.042

Test system: GFP-14-3-3β
Assay: GFP-14-3-3β co-IP with LC-MS/MS, untreated GFP-14-3-3β versus GFP control (14-3-3 interactome)
Format: binding, human
Details: pairwise comparison untreated GFP-14-3-3β vs GFP, student's t-test; 3 replicates each; LC-MS/MS label-free quantification

Molecule	Difference (log2), untreated vs GFP [log2]
B1	4.62
B2	3.797
B3	2.521
B4	2.4159
B5	4.409
B6	1.189
B7	4.099
B8	2.997

— publication PMC7367873, “Dissecting the sequence determinants for dephosphorylation by the catalytic subunits of phosphatases PP1 and PP2A” (Nature Communications, 2020)
